Columns and labels:
[1] = target: T1, Recombinant human PD-1 (Beijing Sino Biological Inc., Catalog No. 10377-H08H) (human, UniProt Q15116 25-167); test: ELISA; panel A
[2] = target: T1, Recombinant human PD-1 (Beijing Sino …); test: ELISA; panel B

T1 sequence (Q15116 25-167): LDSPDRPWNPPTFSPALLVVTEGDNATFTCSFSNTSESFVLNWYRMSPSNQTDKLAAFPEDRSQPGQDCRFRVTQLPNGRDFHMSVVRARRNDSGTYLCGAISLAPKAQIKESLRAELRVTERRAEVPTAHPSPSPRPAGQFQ

EC50 [1]: 61 pM
EC50 [2]: 40 pM
B1: PD-1 (BJHM) monoclonal antibody (antibody, V domains shown)
VH: EVNLVESGGGLVQPGGSLRLSCAASGFTFSSYGMSWVRQAPGKGLEWVASISGGGRYTYYPDSMKGRFTISRDNSKNNLYLQMNSLRAEDTAVYYCVYEYFYTMDYWGQGTLVTVSS
VL: DIVLTQSPATLSLSPGERATLSCRASQSISNNLHWYQQKPGQAPRLLIRFASQSISGIPARFSGSGSGTDFTLTISSLEPEDFAVYFCQQSDNWPLTFGGGTKVEIK

Source: patent US20210040193A1 (published 2021)
